How the values were obtained:
[1] = target: DcDL1 lambda phage displaying gpD-c-myc fusion protein (bacteriophage lambda) (UniProt P03712); experiment: bio-panning in 9E10-coated wells, reference DL1 phage
[2] = target: Lambda phage displaying SS1 scFv (DcSS1DL1), gpD-scFv-c-myc fusion protein (bacteriophage lambda) (UniProt P03712); experiment: phage ELISA on anti-c-myc-coated plates, reference DcDL1
[3] = target: DcDL1 lambda phage displaying gpD-c-myc fusion protein (bacteriophage lambda) (UniProt P03712); experiment: bio-panning of DcDL1 SCO and DCO phage in 9E10-coated wells
[4] = target: λD-Ubiquitin display phage (gpD fused to Ubiquitin) (bacteriophage lambda) (UniProt P03712); experiment: apparent KD from titration of λD-Cue:λD-Ubiquitin co-infection by free protein
[5] = target: λD-CUE display phage (gpD fused to the CUE domain of Vps9p) (bacteriophage lambda) (UniProt P03712); experiment: as above
[6] = target: λD-CUE display phage (gpD fused to the CUE domain of Vps9p) (bacteriophage lambda) (UniProt P03712); experiment: competition: free protein titrates λD-CUE:λD-Ubiquitin co-infection (MOI 0.04), loss of double resistant multilysogens
[7] = target: λD-Ubiquitin display phage (gpD fused to Ubiquitin) (bacteriophage lambda) (UniProt P03712); experiment: cell-based or functional assay

Sequence of free wild type CUE protein (wtCUE, 50 amino acids) (P54787 402-451 limits assumed): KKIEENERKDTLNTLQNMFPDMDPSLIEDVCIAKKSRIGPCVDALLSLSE

What does the source list for Anti-c-myc mAb, 9E10 (antibody)?
fold recovery over DL1 phage [1]: > 200 fold; fold less binding than DcDL1 [2]: 30 times less; recovery of phages (percent of phages added) [3]: 2%

How did the Kd [4] turn out when “free wild type CUE protein (wtCUE, 50 amino acids) (from UniProt P54787 402-451)” was run?
The Kd was 2 nM.

Which Kd [5] does the source give for “free wild type Ubiquitin protein (wtUbiquitin)” here?
The Kd was 20 nM.

What about the IC50 [6] of the same substance?
The IC50 was 3 nM.

With “λD-CUE display phage (gpD fused to the CUE domain of Vps9p) (from UniProt P03712 1-110; P54787 402-451)” as the substance, how does the Cml^r/Kan^r double resistant lysogens at an MOI of 0.008 (8×10^5 phages infecting 1×10^8 cells) [7] read?
Its Cml^r/Kan^r double resistant lysogens at an MOI of 0.008 (8×10^5 phages infecting 1×10^8 cells) is 150 lysogens.

And the MOI at which double resistant multilysogens begin to contribute to the stable lysogen population [7]?
The MOI at which double resistant multilysogens begin to contribute to the stable lysogen population was 0.0001 MOI.

What about the MOI at which formation of double resistant multilysogens begins [7] of the same substance?
Its MOI at which formation of double resistant multilysogens begins is 0.03 MOI.

What about the maximum saturation point of double resistant multilysogens (% of the available cells) [7] of the same substance?
Its maximum saturation point of double resistant multilysogens (% of the available cells) is 25.
